Results taken from US20140004106A1.

What was measured:
[1] = biological target: 28mer peptide of the CXCR5 antigen; test: Antigen-ELISA; PB 5 mM pH 6.50, T0
[2] = biological target: 28mer peptide of the CXCR5 antigen; test: Antigen-ELISA; PB 5 mM pH 7.00, T0
[3] = biological target: 28mer peptide of the CXCR5 antigen; test: Ag-ELISA; DS in PBS, 25°C, 3 months
[4] = biological target: 28mer peptide of the CXCR5 antigen; test: Antigen-ELISA; PBS 155 mM pH 7.00, T0
[5] = biological target: 28mer peptide of the CXCR5 antigen; test: Antigen-ELISA; Citrate 10 mM pH 5.00, T0
[6] = biological target: 28mer peptide of the CXCR5 antigen; test: Antigen-ELISA; Citrate 10 mM pH 5.50, T0
[7] = biological target: 28mer peptide of the CXCR5 antigen; test: Antigen-ELISA; standard run with LA_09_004_3
[8] = biological target: 28mer peptide of the CXCR5 antigen; test: Antigen-ELISA; standard run with LA_09_004_5
[9] = biological target: 28mer peptide of the CXCR5 antigen; test: Antigen-ELISA; standard run with LA_09_004_6
[10] = biological target: 28mer peptide of the CXCR5 antigen; test: Antigen-ELISA; citrate 10 mM prototype A, T0
[11] = biological target: 28mer peptide of the CXCR5 antigen; test: Antigen-ELISA; citrate 10 mM prototype B, T0
[12] = biological target: 28mer peptide of the CXCR5 antigen; test: Antigen-ELISA; acetate 10 mM prototype A, T0
[13] = biological target: 28mer peptide of the CXCR5 antigen; test: Antigen-ELISA; acetate 10 mM prototype B, T0
[14] = biological target: 28mer peptide of the CXCR5 antigen; test: Antigen-ELISA; standard run with LA_09_004_10
[15] = biological target: 28mer peptide of the CXCR5 antigen; test: Antigen-ELISA; standard run with LA_09_29B, T0
[16] = biological target: 28mer peptide of the CXCR5 antigen; test: Potency (Antigen ELISA); stored -20°C, initial
[17] = biological target: 28mer peptide of the CXCR5 antigen; test: Potency (Antigen ELISA); stored -20°C, 6 months
[18] = biological target: 28mer peptide of the CXCR5 antigen; test: Antigen-ELISA; PB 5 mM pH 7.50, after 1 week at +40°C
[19] = biological target: 28mer peptide of the CXCR5 antigen; test: Antigen-ELISA; PB 10 mM pH 7.50, after 1 week at +40°C
[20] = biological target: 28mer peptide of the CXCR5 antigen; test: Antigen-ELISA; TRIS 10 mM pH 8.5, after 1 week at +40°C
[21] = biological target: 28mer peptide of the CXCR5 antigen; test: Antigen-ELISA; PBS 155 mM pH 6.50, after 1 week at +40°C
[22] = biological target: 28mer peptide of the CXCR5 antigen; test: Antigen-ELISA; Histidine 10 mM pH 6, after 1 week at +40°C
[23] = biological target: 28mer peptide of the CXCR5 antigen; test: Antigen-ELISA; Acetate 10 mM pH 5.00, after 1 week at +40°C
[24] = biological target: 28mer peptide of the CXCR5 antigen; test: Antigen-ELISA; Citrate 10 mM pH 6.50, after 1 week at +40°C
[25] = biological target: 28mer peptide of the CXCR5 antigen; test: Antigen-ELISA; Succinate 10 mM pH 6.00, after 1 week at +40°C
[26] = biological target: 28mer peptide of the CXCR5 antigen; test: Antigen-ELISA; PBS 155 mM, polyethylene low density, 24 h +40°C
[27] = biological target: 28mer peptide of the CXCR5 antigen; test: Antigen-ELISA; PBS 155 mM pH 7.50, after mechanical stress 350 rpm 2.5 h
[28] = biological target: 28mer peptide of the CXCR5 antigen; test: ELISA potency (binding); 100 mg/mL, Sucrose (60) + Mannitol (15), 7 days at 40°C

B1: Lead CXCR5 Antibody (humanized IgG4 anti-CXCR5 antibody) (antibody, V domains shown)
VH: QVQLKESGPGLVAPSESLSITCTVSGFSLIDYGVNWIRQPPGKGLEWLGVIWGDGTTYYNPSLKSRLSISKDNSKSQVFLKVTSLTTDDTAMYYCARIVYWGQGTLVTVSA
VL: DIVMTQAAPSVAVTPGASVSISCRSSKSLLHSSGKTYLYWFLQRPGQSPQLLIYRLSSLASGVPDRFSGSGSGTAFTLRISRVEAEDVGVYYCMQHLEYPYTFGGGTKLEIKR
Work on B1 yielded an EC50 % [1] of 110%, an EC50 % [2] of 68% and an EC50 % [3] of 108%. The EC50 % [4] was 74%, the EC50 % [5] was 79% and the EC50 % [6] was 112%. The EC50 % [7] was 100%, the EC50 % [8] was 100% and the EC50 % [9] was 100%. It also gave an EC50 % [10] of 112%, an EC50 % [11] of 104% and an EC50 % [12] of 112%. The EC50 % [13] was 112%, the EC50 % [14] was 100% and the EC50 % [15] was 100%. For the same binder, the EC50 value (in comparison to reference) [16] was 75%, the EC50 value (in comparison to reference) [17] was 96% and the EC50 % [18] was 141%. It also gave an EC50 % [19] of 68%, an EC50 % [20] of 237% and an EC50 % [21] of 115%. The EC50 % [22] was 77%, the EC50 % [23] was 102% and the EC50 % [24] was 46%. For the same binder, the EC50 % [25] was 126%, the EC50 % [26] was 104% and the EC50 % [27] was 71%. For the same binder, the rel. potency [%] [28] was 243%.
